The labels stand for the following.
B1: glmS ribozyme (parent)
chain: AUAAAAGCGCCAGAACUACAGAAAUGUAGUUGACGAGGAGGAGGUUUAUCGAAUUUUCGGCGGAUGCCUCCAAA

± gives the standard error. For part of these data: Variants at the floor of the assay were thinned out.

Holding throughout (conditions): with glucosamine-6-phosphate
Variants of B1 are the subject of data set [1]. Nature of the data set: kcat; higher = faster cleavage; RNA array. The method, boiled down:
(§1)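 In situ transcription by E. coli RNA polymerase produced barcoded ribozyme variants on sequenced MiSeq chips, and a hybridised Cy3 probe tracked them at 37 °C. Glucosamine-6-phosphate was flowed in at 40 μM to 10 mM in HEPES/KCl/Mg(OAc)2 buffer. kcat and KM were taken from weighted Michaelis–Menten fits of kobs values from exponential decay fits.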

Variants of B1 are the subject of data set [2]. Nature of the data set: KM; higher = weaker cofactor use; RNA array. An outline of the steps: as §1
In data set [3] the parent is B1. Briefly: self-cleavage kobs at 40 uM GlcN6P; higher = faster cleavage; RNA array. An outline of the steps:
as §1

In data set [4] the parent is B1. Nature of the data set: self-cleavage kobs at 160 uM GlcN6P; higher = faster cleavage; RNA array. The method, boiled down: as §1
Variants of B1 are the subject of data set [5]. Briefly: self-cleavage kobs at 640 uM GlcN6P; higher = faster cleavage; RNA array. An outline of the steps:
as §1

Data set [6] covers variants of B1. Briefly: self-cleavage kobs at 2500 uM GlcN6P; higher = faster cleavage; RNA array. The method, boiled down: as §1
Variants of B1 are the subject of data set [7]. Briefly: self-cleavage kobs at 10000 uM GlcN6P; higher = faster cleavage; RNA array. The method, boiled down: as §1

AUAAAAGCGCCAGAACUACAGAAAUGUAGUUGACGAGGAGGAGGUUUAUCGACUUUUCGGCGGAUACCUCCAAA: in data set [1], the kcat (usually the number of substrate molecules converted per active site and unit of time at saturation) is 0.00434 ± 0.0011 s⁻¹. Moreover, the KM (in general, the substrate concentration at which the rate is half of its maximum) in data set [2] came out at 1670 ± 640 µM. Also, the “self-cleavage kobs at 40 uM GlcN6P” value in data set [3] amounted to 0.000154 ± 2.2e-05 s⁻¹. Also, the “self-cleavage kobs at 160 uM GlcN6P” value in data set [4] worked out at 0.000292 ± 6.4e-05 s⁻¹. Further, the “self-cleavage kobs at 640 uM GlcN6P” value in data set [5] amounted to 0.00107 ± 0.00017 s⁻¹. The “self-cleavage kobs at 2500 uM GlcN6P” value in data set [6] was found to be 0.00288 ± 0.00047 s⁻¹. The “self-cleavage kobs at 10000 uM GlcN6P” value in data set [7] turned out to be 0.00374 ± 0.00053 s⁻¹.

Turning to AUAAAAGCGCCAGAACUACAGAAAUGUAGUUGACGAGGAGGAGGUUUAUCGAAUUUUCGGCGCAUGCCACCAAA, the kcat in data set [1] is 1.18e-05 ± 4.3e-06 s⁻¹.

Turning to AUAAAAGCGCCAGAACUACAGAAAUGUAGUUGACGAGCAGGAGGUUUAUCGAAUUUUCGGCGGAUGUCUGCAAA, the kcat in data set [1] was determined as 1.59e-05 ± 1.8e-06 s⁻¹.

Consider AUAAAAGCGCCAGAACUACAGAAAUGUAGUUGACGAGGAGGAGGUUCAUCGAAUUUCCGGCGGAUGCCUCCAAA, for which the kcat in data set [1] was 6.99e-05 ± 7.5e-06 s⁻¹. In addition, the “self-cleavage kobs at 2500 uM GlcN6P” value in data set [6] was found to be 5.62e-05 ± 1.1e-05 s⁻¹. In addition, the “self-cleavage kobs at 10000 uM GlcN6P” value in data set [7] was found to be 6.24e-05 ± 9.4e-06 s⁻¹.

AUAAAAGCGCCUGAACUACAGAAAUGUAGUUGACGAGGAGGAGGUUUAUCGAAUUUUCGGCGGAUUCCUCCAAA: the kcat in data set [1] was 0.00516 ± 0.00082 s⁻¹. Besides, in data set [2], the KM came out at 1550 ± 380 µM. Besides, the “self-cleavage kobs at 40 uM GlcN6P” value in data set [3] turned out to be 0.000146 ± 1.8e-05 s⁻¹. Moreover, the “self-cleavage kobs at 160 uM GlcN6P” value in data set [4] is 0.000589 ± 0.0001 s⁻¹. The “self-cleavage kobs at 640 uM GlcN6P” value in data set [5] was 0.00128 ± 0.00014 s⁻¹. For the same variant, the “self-cleavage kobs at 2500 uM GlcN6P” value in data set [6] was 0.00319 ± 0.00044 s⁻¹. For the same variant, the “self-cleavage kobs at 10000 uM GlcN6P” value in data set [7] turned out to be 0.00479 ± 0.00055 s⁻¹.

Take AUAAAAGCGCCUGAACUACAGAAAUGUAGUUGACGAGGAGGCGGUUUAUCGAAUUUUCGGCGGAUGCCUCCAAA: the kcat in data set [1] came out at 2.16e-05 ± 2.9e-06 s⁻¹. In addition, the “self-cleavage kobs at 40 uM GlcN6P” value in data set [3] was less than 1e-05 s⁻¹. Also, the “self-cleavage kobs at 2500 uM GlcN6P” value in data set [6] was found to be 1.75e-05 ± 7.1e-06 s⁻¹. The “self-cleavage kobs at 10000 uM GlcN6P” value in data set [7] was 1.89e-05 ± 8.5e-06 s⁻¹.

AUAAAAGCGCCAGAACUACAGAAAUGUAGUUGACGAGGAGGAGGUUUAUAGAAUUUUCAGCGGAUGCCUCCAAA: the kcat in data set [1] was less than 1e-05 s⁻¹. In data set [5], the “self-cleavage kobs at 640 uM GlcN6P” value was less than 1e-05 s⁻¹.

AUAAAAGCGCCAAAACUACAGAAAUGUAGUUGACGAGGAGGAGGUUUAUCGAAUUUUCGGCGGGUGCCUCCAAA: in data set [1], the kcat was found to be 0.0011 ± 0.0002 s⁻¹. Further, in data set [2], the KM was found to be 6920 ± 2200 µM. In addition, in data set [5], the “self-cleavage kobs at 640 uM GlcN6P” value worked out at 0.000113 ± 2.2e-05 s⁻¹. The “self-cleavage kobs at 2500 uM GlcN6P” value in data set [6] was 0.000246 ± 5e-05 s⁻¹. Moreover, in data set [7], the “self-cleavage kobs at 10000 uM GlcN6P” value was determined as 0.000665 ± 6.7e-05 s⁻¹.

For AUAAAAGCGCCAGAACUACAGAAAUGUAGUUGACGAAGAGGAGGUUUAUCGAUUUUUCGGCGGAUGCCUCCAAA, the kcat in data set [1] was 0.00237 ± 0.00046 s⁻¹. Moreover, the KM in data set [2] stood at 3520 ± 930 µM. Besides, the “self-cleavage kobs at 40 uM GlcN6P” value in data set [3] is 4.73e-05 ± 1.1e-05 s⁻¹. Also, the “self-cleavage kobs at 160 uM GlcN6P” value in data set [4] is 9.91e-05 ± 1.2e-05 s⁻¹. Moreover, the “self-cleavage kobs at 640 uM GlcN6P” value in data set [5] was 0.000367 ± 3.5e-05 s⁻¹. Also, the “self-cleavage kobs at 2500 uM GlcN6P” value in data set [6] is 0.000924 ± 0.0001 s⁻¹. Moreover, the “self-cleavage kobs at 10000 uM GlcN6P” value in data set [7] worked out at 0.00185 ± 0.00023 s⁻¹.

On to AUAAAAGCGCCAUAACUACAGAAAUGUAGUUGACGAGGAGGAGGUUUAUCGUAUUUUCGGCGGAUGCCUCCAAA, for which the kcat in data set [1] came out at 1.58e-05 ± 2.6e-06 s⁻¹. For the same variant, the “self-cleavage kobs at 40 uM GlcN6P” value in data set [3] is less than 1e-05 s⁻¹. Also, the “self-cleavage kobs at 160 uM GlcN6P” value in data set [4] was less than 1e-05 s⁻¹.

Turning to AUAAAAGCGCCAGAACUACAGAAAUGUAGCUGACGAGGAGGAGGUUUAUCGAAUUUUCGGCUGAUGCCUCCAAA, in data set [1], the kcat was less than 1e-05 s⁻¹. Also, the “self-cleavage kobs at 160 uM GlcN6P” value in data set [4] is less than 1e-05 s⁻¹. In data set [7], the “self-cleavage kobs at 10000 uM GlcN6P” value is less than 1e-05 s⁻¹.

Regarding AUAAAAGCGCCAGAACUACAGAAAUGUAUUUUACGAGGAGGAGGUUUAUCGAAUUUUCGGCGGAUGCCUCCAAA, the kcat in data set [1] was 0.00125 ± 0.00041 s⁻¹. The KM in data set [2] was 8560 ± 4000 µM. For the same variant, the “self-cleavage kobs at 640 uM GlcN6P” value in data set [5] was found to be 0.00011 ± 1.5e-05 s⁻¹. In addition, the “self-cleavage kobs at 2500 uM GlcN6P” value in data set [6] was determined as 0.000243 ± 3e-05 s⁻¹. The “self-cleavage kobs at 10000 uM GlcN6P” value in data set [7] turned out to be 0.000702 ± 7.1e-05 s⁻¹.

AUAAAAGCGCCAGAACUACAGAAAUGUAGUUGACGAGGAGGAGGUUUGUCGAAUUUCCGGAGGAUGCCUCCAAA: the kcat in data set [1] is less than 1e-05 s⁻¹. In addition, the “self-cleavage kobs at 2500 uM GlcN6P” value in data set [6] is less than 1e-05 s⁻¹.

Take AUAAAAGCGCCAGAACUACAGAAAUGUAGUUGACGAGGAGGAGGUUUAUCGAAUUAUCGGCGGACGCCUCCAAA: the kcat in data set [1] was found to be 0.00025 ± 5.7e-05 s⁻¹. Besides, in data set [5], the “self-cleavage kobs at 640 uM GlcN6P” value worked out at 0.000242 ± 6.3e-05 s⁻¹. Further, the “self-cleavage kobs at 2500 uM GlcN6P” value in data set [6] came to 0.000177 ± 4.4e-05 s⁻¹. Also, the “self-cleavage kobs at 10000 uM GlcN6P” value in data set [7] amounted to 0.000248 ± 4.7e-05 s⁻¹.

Turning to AUAAAAGCGCCAGAACUACAGAAAUGUAGUUGACGAGGAGGAGGUUUAAGGAAUUUUCGGCGGAUGCCUCUAAA, the kcat in data set [1] was determined as 1.88e-05 ± 4.4e-06 s⁻¹.

Turning to AUAAAAGCGCCAGAACUACAGAAAUGUAGUUGACGAGUAGGAGGUUUAUCGAAUUUUCGGCGGAUUCCUCCAAA, in data set [1], the turnover number (kcat) is less than 1e-05 s⁻¹. Further, the “self-cleavage kobs at 160 uM GlcN6P” value in data set [4] is less than 1e-05 s⁻¹. Moreover, in data set [5], the “self-cleavage kobs at 640 uM GlcN6P” value was less than 1e-05 s⁻¹.

With AUAAAAGCGCCAGAACUACAGAAAUGUAAUUGACGAGGAGGAGGUUUAUCGAAUAUUCGGCGGAUGCCUCCAAA, the kcat in data set [1] was determined as 0.00461 ± 0.0011 s⁻¹. The KM in data set [2] came to 1320 ± 440 µM. For the same variant, in data set [3], the “self-cleavage kobs at 40 uM GlcN6P” value was found to be 0.000165 ± 2e-05 s⁻¹. Also, the “self-cleavage kobs at 160 uM GlcN6P” value in data set [4] is 0.000532 ± 9.2e-05 s⁻¹. Also, the “self-cleavage kobs at 640 uM GlcN6P” value in data set [5] was 0.00123 ± 0.00015 s⁻¹. Moreover, in data set [6], the “self-cleavage kobs at 2500 uM GlcN6P” value is 0.00332 ± 0.00066 s⁻¹. In addition, the “self-cleavage kobs at 10000 uM GlcN6P” value in data set [7] came to 0.00456 ± 0.00065 s⁻¹.

For the variant AUAAAAGCGCCAGAACUACAGAAAUGUAGUUGACGAGGAGGAGGUUUAUCGAAUUUUAGGCGGAUGCCUCAAAA, in data set [1], the kcat turned out to be 5.74e-05 ± 1e-05 s⁻¹. Also, in data set [5], the “self-cleavage kobs at 640 uM GlcN6P” value is 3.29e-05 ± 1.3e-05 s⁻¹. Also, the “self-cleavage kobs at 2500 uM GlcN6P” value in data set [6] was 7.33e-05 ± 1.5e-05 s⁻¹. Moreover, in data set [7], the “self-cleavage kobs at 10000 uM GlcN6P” value was 4.88e-05 ± 9.7e-06 s⁻¹.

Regarding AUAAAAGCGCCUGAACUACAGAAAUGUAGUUGACGAGGAGGAGGUUUAUCGAAUUUGCGGCGGAUGCCUCCAAA, the kcat in data set [1] turned out to be 0.000297 ± 3.7e-05 s⁻¹. For the same variant, the KM in data set [2] was 2260 ± 590 µM. In addition, in data set [4], the “self-cleavage kobs at 160 uM GlcN6P” value was 4.4e-05 ± 2.1e-05 s⁻¹. In data set [5], the “self-cleavage kobs at 640 uM GlcN6P” value was found to be 6.1e-05 ± 1.2e-05 s⁻¹. In addition, the “self-cleavage kobs at 2500 uM GlcN6P” value in data set [6] is 0.000162 ± 2.6e-05 s⁻¹. The “self-cleavage kobs at 10000 uM GlcN6P” value in data set [7] is 0.000241 ± 3e-05 s⁻¹.

The values are drawn from the supplement of paper PMC7125110.
